Test results reported in US20240075157A1 (MAGENTA THERAPEUTICS, published 2024).

Key:
hFcγR3A 176V [1] = target: T1, hFcγR3A 176V (human, UniProt P08637 17-208, tagged with biotin or histidine (which one is not stated for this receptor)); assay: BLI, Bio-hFcR3A 176V
hFcγR2B [2] = target: T2, hFcγR2B (human, UniProt P31994 46-217, tagged with biotin or histidine (which one is not stated for this receptor)); assay: BLI
T2 sequence (looked up): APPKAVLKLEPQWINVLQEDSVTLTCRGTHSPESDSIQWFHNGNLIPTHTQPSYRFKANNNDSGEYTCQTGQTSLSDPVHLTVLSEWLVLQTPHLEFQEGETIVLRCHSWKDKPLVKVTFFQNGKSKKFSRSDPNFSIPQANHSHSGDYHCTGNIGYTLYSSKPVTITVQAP

hFcγR3A 176V [3] = target: T1, hFcγR3A 176V; assay: BLI
Experimental: (§1) To identify Fc modifications that abrogate Fc gamma receptor binding and thereby silence antibody effector functions, IgG antibodies containing one or more amino acid substitution in the Fc region were assessed in an Octet binding assay to measure their ability to bind to different Fc gamma receptors.
(§2) The binding assays were performed at 25° C. in phosphate buffered saline with (0.1% BSA, 0.02% Tween-20) using Bio-Layer Interferometry Device (ForteBio).

hFcγR2B [4] = target: T2, hFcγR2B; assay: BLI, Bio-hFcR2B
Experimental: as §1, §2

T1 sequence (P08637 17-208 F176V limits assumed): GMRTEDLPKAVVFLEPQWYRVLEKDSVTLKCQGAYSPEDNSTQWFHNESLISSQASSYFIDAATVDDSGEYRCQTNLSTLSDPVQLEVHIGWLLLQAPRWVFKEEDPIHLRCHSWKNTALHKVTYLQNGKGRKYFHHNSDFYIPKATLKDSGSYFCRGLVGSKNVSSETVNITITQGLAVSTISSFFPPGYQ

B1: Ab2 D265C N297Q H435A (antibody, human IgG1, kappa, N297Q)
heavy: EVQLVQSGAEVKKPGESLKISCKGSGYSFTNYWIGWVRQMPGKGLEWMAIINPRDSDTRYRPSFQGQVTISADKSISTAYLQWSSLKASDTAMYYCARHGRGYEGYEGAFDIWGQGTLVTVSSASTKGPSVFPLAPSSKSTSGGTAALGCLVKDYFPEPVTVSWNSGALTSGVHTFPAVLQSSGLYSLSSVVTVPSSSLGTQTYICNVNHKPSNTKVDKKVEPKSCDKTHTCPPCPAPELLGGPSVFLFPPKPKDTLMISRTPEVTCVVVCVSHEDPEVKFNWYVDGVEVHNAKTKPREEQYQSTYRVVSVLTVLHQDWLNGKEYKCKVSNKALPAPIEKTISKAKGQPREPQVYTLPPSRDELTKNQVSLTCLVKGFYPSDIAVEWESNGQPENNYKTTPPVLDSDGSFFLYSKLTVDKSRWQQGNVFSCSVMHEALHNAYTQKSLSLSPGK
light: not shown
notes: copies: 2 + 2
Normalized Response (hFcγR3A 176V [1]): 1 % of WT | binding result (hFcγR2B [2]): no binding (tested: 300 nM) | binding result (hFcγR3A 176V [3]): no binding (tested: 300 nM) | Normalized Response (hFcγR2B [4]): 4 % of WT
